Results reported in the supplement of paper PMC9112550, “Optimization of the antimicrobial peptide Bac7 by deep mutational scanning” (BMC Biology, 2022).

System: Escherichia coli TOP10
Experiment: shrunken log2 fold change of peptide-encoding DNA abundance (4.5 h post-induction vs induction); higher = less antimicrobial activity (less host growth inhibition)
Details: time post-induction: 4.5 h; library: site-saturation at positions 5, 18, 19, 20
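Note: peptides expressed intracellularly from a pBAD plasmid library in pooled LB shake-flask culture, induced with 0.3% L-arabinose, DNA abundance read by NGS, three biological replicates, DESeq2 with apeglm shrinkage.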

Sequence: RRIRYRPPRLPRPRPRPHPAPRP
- shrunken log2 fold change: -0.333

Sequence: RRIRIRPPRLPRPRPRPRAAPRP
- shrunken log2 fold change: 0.458

Sequence: RRIRMRPPRLPRPRPRPSRPPRP
- shrunken log2 fold change: 0.764

Sequence: RRIRGRPPRLPRPRPRPMLVPRP
- shrunken log2 fold change: 0.418

Sequence: RRIRDRPPRLPRPRPRPSTQPRP
- shrunken log2 fold change: 0.445

Sequence: RRIRPRPPRLPRPRPRPACVPRP
- shrunken log2 fold change: 0.26

Sequence: RRIRNRPPRLPRPRPRPDWRPRP
- shrunken log2 fold change: -0.158

Sequence: RRIRPRPPRLPRPRPRPPVMPRP
- shrunken log2 fold change: 0.303

Sequence: RRIRWRPPRLPRPRPRPVGNPRP
- shrunken log2 fold change: 0.0858

Sequence: RRIRLRPPRLPRPRPRPLCAPRP
- shrunken log2 fold change: 0.11

Sequence: RRIRMRPPRLPRPRPRPHFNPRP
- shrunken log2 fold change: -0.0825

Sequence: RRIRLRPPRLPRPRPRPGWHPRP
- shrunken log2 fold change: 0.13

Sequence: RRIRLRPPRLPRPRPRPFHWPRP
- shrunken log2 fold change: -0.000687

Sequence: RRIRKRPPRLPRPRPRPWWYPRP
- shrunken log2 fold change: -0.127

Sequence: RRIRCRPPRLPRPRPRPFDRPRP
- shrunken log2 fold change: -0.115

Sequence: RRIRNRPPRLPRPRPRPETEPRP
- shrunken log2 fold change: -0.0793

Sequence: RRIRYRPPRLPRPRPRPFFKPRP
- shrunken log2 fold change: -0.518

Sequence: RRIRNRPPRLPRPRPRPHYQPRP
- shrunken log2 fold change: -0.568

Sequence: RRIRYRPPRLPRPRPRPDEPPRP
- shrunken log2 fold change: -0.0449

Sequence: RRIRRRPPRLPRPRPRPPCYPRP
- shrunken log2 fold change: 0.473

Sequence: RRIRCRPPRLPRPRPRPGSTPRP
- shrunken log2 fold change: -0.474

Sequence: RRIRQRPPRLPRPRPRPWWYPRP
- shrunken log2 fold change: -0.0791

Sequence: RRIRLRPPRLPRPRPRPVTWPRP
- shrunken log2 fold change: -0.0276

Sequence: RRIRLRPPRLPRPRPRPPHCPRP
- shrunken log2 fold change: 0.177

Sequence: RRIRHRPPRLPRPRPRPHYKPRP
- shrunken log2 fold change: -0.973

Sequence: RRIRGRPPRLPRPRPRPQDWPRP
- shrunken log2 fold change: 0.639

Sequence: RRIRMRPPRLPRPRPRPTITPRP
- shrunken log2 fold change: 0.114

Sequence: RRIRCRPPRLPRPRPRPLCEPRP
- shrunken log2 fold change: -0.0345

Sequence: RRIRTRPPRLPRPRPRPVCRPRP
- shrunken log2 fold change: 0.0309

Sequence: RRIRFRPPRLPRPRPRPEVNPRP
- shrunken log2 fold change: 0.0557

Sequence: RRIRCRPPRLPRPRPRPFWNPRP
- shrunken log2 fold change: -0.278

Sequence: RRIRYRPPRLPRPRPRPMLDPRP
- shrunken log2 fold change: -0.467

Sequence: RRIRRRPPRLPRPRPRPKLEPRP
- shrunken log2 fold change: 0.297

Sequence: RRIRMRPPRLPRPRPRPNDIPRP
- shrunken log2 fold change: -0.0213

Sequence: RRIRNRPPRLPRPRPRPDFTPRP
- shrunken log2 fold change: 0.0959

Sequence: RRIRVRPPRLPRPRPRPHLEPRP
- shrunken log2 fold change: -0.133

Sequence: RRIRSRPPRLPRPRPRPVNAPRP
- shrunken log2 fold change: 0.319

Sequence: RRIRLRPPRLPRPRPRPFDQPRP
- shrunken log2 fold change: 0.0721

Sequence: RRIRVRPPRLPRPRPRPKFEPRP
- shrunken log2 fold change: 0.12

Sequence: RRIRERPPRLPRPRPRPSRDPRP
- shrunken log2 fold change: -0.12

Sequence: RRIRHRPPRLPRPRPRPWCCPRP
- shrunken log2 fold change: -0.352

Sequence: RRIRARPPRLPRPRPRPDCVPRP
- shrunken log2 fold change: 0.813

Sequence: RRIRNRPPRLPRPRPRPHYLPRP
- shrunken log2 fold change: -0.218

Sequence: RRIRQRPPRLPRPRPRPQMPPRP
- shrunken log2 fold change: -1.26

Sequence: RRIRCRPPRLPRPRPRPKNSPRP
- shrunken log2 fold change: -0.159

Sequence: RRIRDRPPRLPRPRPRPMLIPRP
- shrunken log2 fold change: -0.0943

Sequence: RRIRKRPPRLPRPRPRPMDAPRP
- shrunken log2 fold change: 0.415

Sequence: RRIRQRPPRLPRPRPRPRFEPRP
- shrunken log2 fold change: 0.0165

Sequence: RRIRTRPPRLPRPRPRPHKPPRP
- shrunken log2 fold change: -0.0565

Sequence: RRIRARPPRLPRPRPRPTVAPRP
- shrunken log2 fold change: 0.779

Sequence: RRIRKRPPRLPRPRPRPCVTPRP
- shrunken log2 fold change: 0.0632

Sequence: RRIRMRPPRLPRPRPRPAAFPRP
- shrunken log2 fold change: 0.503

Sequence: RRIRSRPPRLPRPRPRPPFFPRP
- shrunken log2 fold change: 0.143

Sequence: RRIRLRPPRLPRPRPRPIEKPRP
- shrunken log2 fold change: 0.000506

Sequence: RRIRSRPPRLPRPRPRPGNTPRP
- shrunken log2 fold change: -0.472

Sequence: RRIRPRPPRLPRPRPRPLKTPRP
- shrunken log2 fold change: -0.000587

Sequence: RRIRNRPPRLPRPRPRPPQHPRP
- shrunken log2 fold change: 0.149

Sequence: RRIRNRPPRLPRPRPRPNSVPRP
- shrunken log2 fold change: -0.0503

Sequence: RRIRARPPRLPRPRPRPAKIPRP
- shrunken log2 fold change: 0.321

Sequence: RRIRLRPPRLPRPRPRPQKEPRP
- shrunken log2 fold change: 0.0466

Sequence: RRIRPRPPRLPRPRPRPWKEPRP
- shrunken log2 fold change: -0.164

Sequence: RRIRCRPPRLPRPRPRPMEPPRP
- shrunken log2 fold change: 0.0774

Sequence: RRIRMRPPRLPRPRPRPHNQPRP
- shrunken log2 fold change: 0.177

Sequence: RRIRTRPPRLPRPRPRPHCPPRP
- shrunken log2 fold change: -0.605

Sequence: RRIRFRPPRLPRPRPRPFTKPRP
- shrunken log2 fold change: -0.411

Sequence: RRIRSRPPRLPRPRPRPGHPPRP
- shrunken log2 fold change: 0.0456

Sequence: RRIRLRPPRLPRPRPRPLDCPRP
- shrunken log2 fold change: 0.0132

Sequence: RRIRHRPPRLPRPRPRPHCLPRP
- shrunken log2 fold change: -0.777

Sequence: RRIRCRPPRLPRPRPRPGHGPRP
- shrunken log2 fold change: -0.0435

Sequence: RRIRDRPPRLPRPRPRPNVCPRP
- shrunken log2 fold change: -0.0195

Sequence: RRIRNRPPRLPRPRPRPCVNPRP
- shrunken log2 fold change: -0.282

Sequence: RRIRPRPPRLPRPRPRPYIAPRP
- shrunken log2 fold change: -0.395

Sequence: RRIRIRPPRLPRPRPRPMWVPRP
- shrunken log2 fold change: -0.11

Sequence: RRIRYRPPRLPRPRPRPCWTPRP
- shrunken log2 fold change: -0.374

Sequence: RRIRGRPPRLPRPRPRPCAKPRP
- shrunken log2 fold change: 0.661

Sequence: RRIRARPPRLPRPRPRPRESPRP
- shrunken log2 fold change: 0.198

Sequence: RRIRNRPPRLPRPRPRPGEWPRP
- shrunken log2 fold change: 0.00667

Sequence: RRIRSRPPRLPRPRPRPNAGPRP
- shrunken log2 fold change: 0.0362

Sequence: RRIRCRPPRLPRPRPRPAWFPRP
- shrunken log2 fold change: 0.194

Sequence: RRIRVRPPRLPRPRPRPHADPRP
- shrunken log2 fold change: 0.00219

Sequence: RRIRSRPPRLPRPRPRPDEPPRP
- shrunken log2 fold change: 0.0784

Sequence: RRIRVRPPRLPRPRPRPDPEPRP
- shrunken log2 fold change: -0.0984

Sequence: RRIRERPPRLPRPRPRPQINPRP
- shrunken log2 fold change: -0.586

Sequence: RRIRKRPPRLPRPRPRPWRKPRP
- shrunken log2 fold change: 0.0487

Sequence: RRIRQRPPRLPRPRPRPTEVPRP
- shrunken log2 fold change: -0.018

Sequence: RRIRVRPPRLPRPRPRPQGMPRP
- shrunken log2 fold change: -1.02

Sequence: RRIRIRPPRLPRPRPRPYKLPRP
- shrunken log2 fold change: -1.04

Sequence: RRIRKRPPRLPRPRPRPHIWPRP
- shrunken log2 fold change: 0.143

Sequence: RRIRMRPPRLPRPRPRPKMPPRP
- shrunken log2 fold change: 0.493

Sequence: RRIRTRPPRLPRPRPRPNTEPRP
- shrunken log2 fold change: -0.011

Sequence: RRIRKRPPRLPRPRPRPLYAPRP
- shrunken log2 fold change: 0.0609

Sequence: RRIRRRPPRLPRPRPRPLLTPRP
- shrunken log2 fold change: 0.399

Sequence: RRIRDRPPRLPRPRPRPFVVPRP
- shrunken log2 fold change: -0.266

Sequence: RRIRHRPPRLPRPRPRPFNFPRP
- shrunken log2 fold change: -0.648

Sequence: RRIRFRPPRLPRPRPRPPADPRP
- shrunken log2 fold change: 0.789

Sequence: RRIRERPPRLPRPRPRPVDHPRP
- shrunken log2 fold change: -0.195

Sequence: RRIRERPPRLPRPRPRPDDYPRP
- shrunken log2 fold change: -0.118

Sequence: RRIRTRPPRLPRPRPRPERSPRP
- shrunken log2 fold change: 0.104

Sequence: RRIRGRPPRLPRPRPRPKGMPRP
- shrunken log2 fold change: 0.442

Sequence: RRIRCRPPRLPRPRPRPYYGPRP
- shrunken log2 fold change: -0.199

Sequence: RRIRARPPRLPRPRPRPGHMPRP
- shrunken log2 fold change: -0.0412

Sequence: RRIRSRPPRLPRPRPRPVYVPRP
- shrunken log2 fold change: -0.525

Sequence: RRIRQRPPRLPRPRPRPRMEPRP
- shrunken log2 fold change: -0.194

Sequence: RRIRYRPPRLPRPRPRPKFPPRP
- shrunken log2 fold change: -1.01

Sequence: RRIRDRPPRLPRPRPRPQNYPRP
- shrunken log2 fold change: -0.589

Sequence: RRIRKRPPRLPRPRPRPYPAPRP
- shrunken log2 fold change: 0.289

Sequence: RRIRDRPPRLPRPRPRPPALPRP
- shrunken log2 fold change: 0.239

Sequence: RRIRLRPPRLPRPRPRPTSFPRP
- shrunken log2 fold change: -0.0182

Sequence: RRIRKRPPRLPRPRPRPCHEPRP
- shrunken log2 fold change: 0.00408

Sequence: RRIRYRPPRLPRPRPRPQGVPRP
- shrunken log2 fold change: -0.464

Sequence: RRIRQRPPRLPRPRPRPHLHPRP
- shrunken log2 fold change: -0.177

Sequence: RRIRLRPPRLPRPRPRPHMQPRP
- shrunken log2 fold change: -0.556

Sequence: RRIRSRPPRLPRPRPRPEYDPRP
- shrunken log2 fold change: 0.0801

Sequence: RRIRTRPPRLPRPRPRPTLWPRP
- shrunken log2 fold change: 0.475

Sequence: RRIRLRPPRLPRPRPRPLRQPRP
- shrunken log2 fold change: 0.385

Sequence: RRIRFRPPRLPRPRPRPLEDPRP
- shrunken log2 fold change: -0.0439

Sequence: RRIRRRPPRLPRPRPRPYWPPRP
- shrunken log2 fold change: -0.377

Sequence: RRIRIRPPRLPRPRPRPVWRPRP
- shrunken log2 fold change: 0.391

Sequence: RRIRPRPPRLPRPRPRPCNNPRP
- shrunken log2 fold change: -0.177

Sequence: RRIRNRPPRLPRPRPRPMHPPRP
- shrunken log2 fold change: -0.212

Sequence: RRIRLRPPRLPRPRPRPWQVPRP
- shrunken log2 fold change: 0.0253

Sequence: RRIRERPPRLPRPRPRPFMPPRP
- shrunken log2 fold change: -0.777

Sequence: RRIRSRPPRLPRPRPRPCPAPRP
- shrunken log2 fold change: -0.271

Sequence: RRIRFRPPRLPRPRPRPWPWPRP
- shrunken log2 fold change: -0.00192

Sequence: RRIRNRPPRLPRPRPRPSLSPRP
- shrunken log2 fold change: -0.205
